{"source": "FireProtDB (doi:10.1021/bi982158q)", "proteins": {"B1": {"name": "Cytochrome b5 wild type, P00171 (protein)", "chain": "MAEESSKAVKYYTLEEIQKHNNSKSTWLILHYKVYDLTKFLEEHPGGEEVLREQAGGDATENFEDVGHSTDARELSKTFIIGELHPDDRSKITKPSESIITTIDSNPSWWTNWLIPAISALFVALIYHLYTSEN"}}, "settings": "Bos taurus, pH 7, K2HPO4 5 mM, transition: 2, reversible: Yes, whole UniProt chain shown; for Tm: Thermal"}
{"protein": "B1", "values": [{"measurement": "denaturant m value", "setting": "25 °C, Urea, Absorbance", "result": 1.26, "unit": "kcal/mol/M"}, {"measurement": "denaturant midpoint (higher = more stable)", "setting": "25 °C, Urea, Absorbance", "result": 6.9, "unit": "M"}, {"measurement": "unfolding free energy", "setting": "25 °C, Urea, Absorbance", "result": 8.7, "unit": "kcal/mol"}, {"measurement": "Tm", "setting": "Absorbance", "result": 75.2, "unit": "°C"}, {"measurement": "Tm", "setting": "Fluorescence", "result": 50.1, "unit": "°C"}]}
